Measurements reported in paper PMC11753425.
One block for each substance: values may come before it.

Experiments:
[1] = target: Orf13-V164C-Q280C (not stated (Tn916, an ICE widespread in Enterococcus faecalis and other firmicutes)); test: SEC-MALS; soluble proteins, Superdex 200 Increase, 50 mM tris-HCl, 100 mM NaCl, pH 8
[2] = target: OrfGExt (purified, WT) (Streptococcus thermophilus); test: crystal structure; sitting drop, 20°C; WT in 1.26 M ammonium sulfate, 100 mM sodium cacodylate pH 6.5; A204C-A264C in 40% PEG 300, 100 mM potassium phosphate citrate pH 4.2
[3] = target: OrfGExt-A204C-A264C (Streptococcus thermophilus); test: SEC-MALS; soluble proteins, Superdex 200 Increase, 50 mM tris-HCl, 100 mM NaCl, pH 8
[4] = target: OrfGExt-A204C-A264C (Streptococcus thermophilus); test: crystal structure; sitting drop, 20°C; WT in 1.26 M ammonium sulfate, 100 mM sodium cacodylate pH 6.5; A204C-A264C in 40% PEG 300, 100 mM potassium phosphate citrate pH 4.2
[5] = target: full-length OrfG-A204C-A264C (purified) (Streptococcus thermophilus); test: SEC-MALS; membrane proteins, Superose 6 10/300 Increase, 50 mM tris-HCl pH 8, 300 mM NaCl, 0.1% OGNG
[6] = target: full-length OrfG-A204C-A264C produced in S. thermophilus (Streptococcus thermophilus); test: cross-linking; disulfide cross-linking of engineered cysteines in S. thermophilus; membrane fractions with or without DTT, SDS-PAGE, Western blot with Ab-G

- stoichiometry N [2]: 3
Substance: OrfGExt (purified, WT) (domain or fragment)

- stoichiometry N [3]: 3
- stoichiometry N [4]: 3
Substance: OrfGExt-A204C-A264C (domain or fragment)

Further lines, the substance ahead of its results:

Substance: Orf13-V164C-Q280C (domain or fragment)
- stoichiometry N [1]: 3

Substance: full-length OrfG-A204C-A264C (purified) (natural protein)
- stoichiometry N [5]: 3

Substance: full-length OrfG-A204C-A264C produced in S. thermophilus (natural protein)
- stoichiometry N [6]: 3
